Measured values as given in US20150197564A1 (Regeneron, published 2015).

What was measured:
mANGPTL3(17-240)-His [1] = biological target: T1, mANGPTL3(17-240)-His (Mus musculus, UniProt Q9R182 17-240); assay: cell-based or functional assay
T1 sequence: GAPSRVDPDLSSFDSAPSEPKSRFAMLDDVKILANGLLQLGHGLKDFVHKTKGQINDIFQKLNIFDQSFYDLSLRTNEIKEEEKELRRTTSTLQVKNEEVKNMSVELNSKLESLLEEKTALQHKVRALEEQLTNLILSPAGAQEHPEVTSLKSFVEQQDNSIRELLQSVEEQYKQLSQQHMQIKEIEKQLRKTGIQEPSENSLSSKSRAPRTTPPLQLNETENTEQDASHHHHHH

hANGPTL3(17-169)-mFc = biological target: T2, hANGPTL3(17-169)-mFc (human); assay: cell-based or functional assay
T2 chain: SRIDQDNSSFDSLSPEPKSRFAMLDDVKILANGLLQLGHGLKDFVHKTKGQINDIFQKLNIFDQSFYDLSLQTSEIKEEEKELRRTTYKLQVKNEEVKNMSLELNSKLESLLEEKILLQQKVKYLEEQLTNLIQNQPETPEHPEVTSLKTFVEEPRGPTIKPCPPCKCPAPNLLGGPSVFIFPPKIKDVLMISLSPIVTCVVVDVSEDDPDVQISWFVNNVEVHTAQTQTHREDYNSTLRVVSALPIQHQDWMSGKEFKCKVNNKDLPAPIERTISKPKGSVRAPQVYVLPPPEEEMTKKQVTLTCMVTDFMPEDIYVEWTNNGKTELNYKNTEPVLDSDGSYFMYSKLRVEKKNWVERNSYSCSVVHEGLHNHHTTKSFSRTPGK

MfANGPTL3(17-170)-mmH [2] = biological target: T3, MfANGPTL3(17-170)-mmH (Macaca fascicularis); assay: cell-based or functional assay
T3 chain: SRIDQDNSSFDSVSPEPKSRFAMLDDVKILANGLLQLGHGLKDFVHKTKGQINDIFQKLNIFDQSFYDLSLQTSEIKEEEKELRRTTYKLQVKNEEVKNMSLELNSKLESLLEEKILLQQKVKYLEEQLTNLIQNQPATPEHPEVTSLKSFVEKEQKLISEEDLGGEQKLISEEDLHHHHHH

hANGPTL3(17-170)-His = biological target: T4, hANGPTL3(17-170)-His (human, UniProt Q9Y5C1 17-170); assay: cell-based or functional assay
T4 sequence: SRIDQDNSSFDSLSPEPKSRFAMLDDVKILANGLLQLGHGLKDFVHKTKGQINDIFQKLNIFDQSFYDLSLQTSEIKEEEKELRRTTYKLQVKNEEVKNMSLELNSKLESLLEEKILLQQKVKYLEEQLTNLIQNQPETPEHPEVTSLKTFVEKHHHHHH

hANGPTL3(17-460)-His = biological target: T5, hANGPTL3(17-460)-His (human, UniProt Q9Y5C1 17-460); assay: cell-based or functional assay
T5 sequence: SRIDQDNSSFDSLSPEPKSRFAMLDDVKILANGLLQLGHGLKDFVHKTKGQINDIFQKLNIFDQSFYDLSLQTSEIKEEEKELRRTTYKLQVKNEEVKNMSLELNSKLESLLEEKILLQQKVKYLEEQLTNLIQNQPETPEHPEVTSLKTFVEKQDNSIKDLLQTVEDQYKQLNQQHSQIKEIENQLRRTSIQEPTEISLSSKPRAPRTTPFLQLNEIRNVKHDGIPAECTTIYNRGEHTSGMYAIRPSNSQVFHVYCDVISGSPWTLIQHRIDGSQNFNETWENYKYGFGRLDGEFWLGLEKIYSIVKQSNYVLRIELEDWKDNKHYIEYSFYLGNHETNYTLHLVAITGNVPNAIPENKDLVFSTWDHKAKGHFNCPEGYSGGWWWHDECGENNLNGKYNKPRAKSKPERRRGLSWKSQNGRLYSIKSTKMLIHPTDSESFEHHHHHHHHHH

mANGPTL3(17-240)-His [3] = biological target: T1, mANGPTL3(17-240)-His; assay: SPR Biacore, antigen captured, 37C, pH 7.4, HBS-EP
MfANGPTL3(17-170)-mmH [4] = biological target: T3, MfANGPTL3(17-170)-mmH; assay: SPR Biacore, antigen captured, 37C, pH 7.4, HBS-EP
rANGPTL3(17-240)-mmH = biological target: T6, rANGPTL3(17-240)-mmH (Rattus norvegicus); assay: SPR Biacore, antigen captured, 37C, pH 7.4, HBS-EP
T6 construct: also called N-terminal coiled-coil domain of ANGPTL3 from Rattus norvegicus with myc-myc-hexahistidine tag
T6 chain: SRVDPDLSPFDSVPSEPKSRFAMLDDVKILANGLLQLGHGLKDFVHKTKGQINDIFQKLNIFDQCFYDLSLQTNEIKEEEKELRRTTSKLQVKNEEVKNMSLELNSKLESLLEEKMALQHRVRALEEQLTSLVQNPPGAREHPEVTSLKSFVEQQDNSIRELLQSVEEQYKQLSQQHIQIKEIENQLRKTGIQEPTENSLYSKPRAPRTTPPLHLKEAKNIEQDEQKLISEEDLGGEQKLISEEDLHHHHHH

IC50 (nM), LPL bioassay, 500 nM constant ANGPTL3 (mANGPTL3(17-240)-His [1]): 31 nM
IC50 (nM), LPL bioassay, 80 nM constant ANGPTL3 (hANGPTL3(17-169)-mFc): 21 nM
IC50 (nM), LPL bioassay, 500 nM constant ANGPTL3 (MfANGPTL3(17-170)-mmH [2]): 10 nM
IC50 (nM), LPL bioassay, 100 nM constant ANGPTL3 (hANGPTL3(17-170)-His): 2.9 nM
IC50 (nM), LPL bioassay, 80 nM constant ANGPTL3 (hANGPTL3(17-460)-His): 9.6 nM
Kd (mANGPTL3(17-240)-His [3]): 1.18 nM
koff (mANGPTL3(17-240)-His [3]): 0.000964 s⁻¹
kon (mANGPTL3(17-240)-His [3]): 819000 M⁻¹ s⁻¹
t1/2 (mANGPTL3(17-240)-His [3]): 12 min
Kd (MfANGPTL3(17-170)-mmH [4]): 0.625 nM
koff (MfANGPTL3(17-170)-mmH [4]): 0.00117 s⁻¹
kon (MfANGPTL3(17-170)-mmH [4]): 1.87e+06 M⁻¹ s⁻¹
t1/2 (MfANGPTL3(17-170)-mmH [4]): 9.9 min
Kd (rANGPTL3(17-240)-mmH): 0.94 nM
koff (rANGPTL3(17-240)-mmH): 0.00193 s⁻¹
kon (rANGPTL3(17-240)-mmH): 2.05e+06 M⁻¹ s⁻¹
t1/2 (rANGPTL3(17-240)-mmH): 6 min
B1: H4H1276S (antibody, IgG4, V domains shown)
VH: EVQLVESGGGVIQPGGSLRLSCAASGFTFDDYAMNWVRQGPGKGLEWVSAISGDGGSTYYADSVKGRFTISRDNSKNSLYLQMNSLRAEDTAFFYCAKDLRNTIFGVVIPDAFDIWGQGTMVTVSS
VL: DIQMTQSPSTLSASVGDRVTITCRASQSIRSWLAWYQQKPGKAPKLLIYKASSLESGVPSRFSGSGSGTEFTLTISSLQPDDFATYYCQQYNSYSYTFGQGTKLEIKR
